Tests used:
[1] = tested on: T1, SepH (Streptomyces venezuelae NRRL B-65442), ORF:b45d4985; experiment: EMSA; conditions: 50 mM HEPES/KOH pH 7.2, 50 mM KCl, 5 mM MgCl2, room temperature, 30 min (EMSA 50 ng probe in 20 uL, 0.5x TBE gel; footprinting 40 uL)
T1 sequence: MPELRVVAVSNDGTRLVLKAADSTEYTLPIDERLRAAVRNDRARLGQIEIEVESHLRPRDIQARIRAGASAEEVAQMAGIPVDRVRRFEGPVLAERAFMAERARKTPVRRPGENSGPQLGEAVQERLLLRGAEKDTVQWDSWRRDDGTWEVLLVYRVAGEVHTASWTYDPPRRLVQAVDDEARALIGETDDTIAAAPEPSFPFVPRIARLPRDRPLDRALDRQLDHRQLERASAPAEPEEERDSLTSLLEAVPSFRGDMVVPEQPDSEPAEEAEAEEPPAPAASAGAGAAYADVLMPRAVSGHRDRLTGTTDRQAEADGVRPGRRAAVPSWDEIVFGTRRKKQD

[2] = tested on: T1, SepH (Streptomyces venezuelae NRRL B-65442), ORF:b45d4985; experiment: DNase I footprinting; conditions: 50 mM HEPES/KOH pH 7.2, 50 mM KCl, 5 mM MgCl2, room temperature, 30 min (EMSA 50 ng probe in 20 uL, 0.5x TBE gel; footprinting 40 uL)
[3] = target: FtsZ (S. venezuelae), purified, untagged (Streptomyces venezuelae); experiment: co-sedimentation; high speed (350,000 x g, 15 min); 3.5 µM FtsZ, 0.6 µM SepH or SepH-G79P, with or without 2 mM GTP, buffer P, 30°C; SDS-PAGE, Coomassie, bands quantified
[4] = target: FtsZ (S. venezuelae), purified, untagged (Streptomyces venezuelae); experiment: co-sedimentation; high speed (350,000 x g, 15 min); 3.5 µM FtsZ, with or without 0.6 µM SepH, 1 mM GMPCCP, buffer P, 30°C
[5] = target: FtsZ (S. venezuelae), purified, untagged (Streptomyces venezuelae)
[6] = target: SepH (S. venezuelae), purified, untagged (Streptomyces venezuelae); experiment: SEC; 30 µM protein, Superose 12 10/300 GL, buffer P (50 mM HEPES pH 7.2, 50 mM KCl, 5 mM MgCl2); size predicted from MW standards
[7] = target: SepH-CTD (residues 187-344 of S. venezuelae SepH), purified, untagged (Streptomyces venezuelae); experiment: as above
[8] = target: SepH-G79P (S. venezuelae), purified, untagged (Streptomyces venezuelae); experiment: as above
[9] = target: SepH-NTD (residues 1-186 of S. venezuelae SepH), purified, untagged (Streptomyces venezuelae); experiment: as above
[10] = target: the molecule itself; experiment: SEC; SepHMs, Superose 12 10/300 GL, modified buffer P (50 mM HEPES pH 6.8, 100 mM KCl, 5 mM MgCl2); size predicted from MW standards

CCTTCGATCGTCCCTGGTCGGAGCGGCCGGTCGATGATCGAATCGGCGGCTCGGGATGATCACTGCCCGAGTGGGATGCCACCATGCCGACCCATGCGGCGGCTCACTCGAACGGGTCGAACGCGCCGGGGTGCGCGCCCCTCAGGCGCCGTGGGCGCGCCTCTCAGCGGAGAGGACGTGTTCCCCGGGAACGACAAAGCCCCGGTTGGACGGGGGATTCCAACCGGGGCCGATCGCCGTGACGCGAAGGGC (double strand) [vnz_35870 promoter region probe]
binding [1]: no binding
binding [2]: no binding

FtsZ (S. venezuelae), purified, untagged (natural protein)
percent of FtsZ in the pellet (with GTP and SepH) [3]: 47%
percent of FtsZ in the pellet (with GTP and SepH-G79P) [3]: 36%
percent of FtsZ in the pellet (with GTP) [3]: 35%
percent of FtsZ in the pellet (with GMPCCP) [4]: 88%

GCGGTCGTCGCCGCGGGCGGAGCCGATGCCCATCAGGGCCGAACCGGCCTCGGACATGACCGACTTGACGTCGGCGAAGTCGAGGTTGATCAGGCCCGGGGTGGTGATGAGGTCGGTGATGCCCTGCACACCGCTCAGCAGCACCTGGTCGGCCGACTTGAAGGCGTCGAGCACGGAGACCTGGCGGTCCGAGATCGACAGGAGCCGGTCGTTGGGGATGACGATGAGGGTGTCGACCTCTTCGCGGAGCTCGGCGATGCC (double strand) [vnz_08520 (ftsZ) internal probe]
binding [1]: no binding

GCTGCTCGTCCCCGCGCAGGCGGAACCCGACGACGTCGTCCTGTCCTGGGAGGGGGAGGACGTGCTCGCCGTACGGCTGCCGCAGCTGTCCGAATCCCTCGATCACATCCTGGCGGCGATGGAGCGGCGGCACGGGATGCCACTGGCCGAGCTGGACCGCAAGGCCAAGCAGGAGGCCGTCCGTCTGCTGGAGGCGCGCGGCGCCTTCGCCGTACGCCATGGAGTGGAGACGGTGGCGGGTGCACTCGGTGTCAGCCGC (double strand) [vnz_30075 promoter region probe]
binding [2]: no binding

SepH (S. venezuelae), purified, untagged (natural protein)
critical concentration of FtsZ from the GTPase rate, with 0.6 µM SepH (1.43 µM without SepH) [5]: 1.11 µM
percent of SepH in the pellet (with FtsZ and GTP) [3]: 96%
percent of SepH in the pellet (with FtsZ and GMPCCP) [4]: 98%
stoichiometry N [6]: 4

SepH-CTD (residues 187-344 of S. venezuelae SepH), purified, untagged (domain or fragment)
stoichiometry N [7]: 4

SepH-G79P (S. venezuelae), purified, untagged (natural protein)
percent of SepH-G79P in the pellet (with FtsZ and GTP) [3]: 50%
stoichiometry N [8]: 4

SepH-NTD (residues 1-186 of S. venezuelae SepH), purified, untagged (domain or fragment)
stoichiometry N [9]: 2

B1: SepHMs-6xHis (SepH from M. smegmatis), purified (natural protein, Mycobacterium smegmatis mc2 155, UniProt A0R430 1-276, looked up)
chain: MRELRVVGLDVDGKRIICETADSAEMFTLRVDDRLRAALRGDKVASNQTEIDLEVQSVLRPKEIQAKIRAGASVEQLAAAAGVPVERVERFAHPVLLERARAAELATAAHPVLADGPSVLTLLETVTKALVARGLDPDAVAWDAWRNEDSRWTVQLAWKAGRSDNVAHFRFTPGSHGGLVTASDDAAHQLINPDFARPLRPVAAVPQLEFEAPQPAQPAAPPQPAQAVPTPEPAPAPEQEPEPAPAPAPKRSRKARATVPAWEDVLLGVRSSGTQR
notes: SepH homolog of Mycobacterium smegmatis mc2 155, MSMEG_5685, in pET21b (pSS561); Tetramer predicted from size exclusion chromatography; also called SepHMs-His6; SepH-6xHis; source: E. coli Rossetta (DE3), purified (HisTrap); not shown: His6, C-terminal, kept
stoichiometry N [10]: 4

Source: paper PMC7968930, “A conserved cell division protein directly regulates FtsZ dynamics in filamentous and unicellular actinobacteria” (eLife, 2021)
